Assay results as given in paper PMC6393309 (Nucleic Acids Research, 2019).
Where a chain is given by its changes, count along the chain named. Names may count otherwise. “And” between values parts separate entries of the source, which are not always exact repeats. Identical values can stand only once. “Also recorded” adds a separate entry of the source. Like-named read-outs stand apart in the source and are kept apart here. Residues, ends and D or L forms follow the SMILES beside them. No end group written: not given here. *: point of attachment. 5FAM = O=C1OC2(c3ccc(O)cc3Oc3cc(O)ccc32)c2ccc(C(=O)*)cc21

T1: Redβ (Escherichia phage lambda, UniProt P03698)
T1 sequence (P03698 1-261): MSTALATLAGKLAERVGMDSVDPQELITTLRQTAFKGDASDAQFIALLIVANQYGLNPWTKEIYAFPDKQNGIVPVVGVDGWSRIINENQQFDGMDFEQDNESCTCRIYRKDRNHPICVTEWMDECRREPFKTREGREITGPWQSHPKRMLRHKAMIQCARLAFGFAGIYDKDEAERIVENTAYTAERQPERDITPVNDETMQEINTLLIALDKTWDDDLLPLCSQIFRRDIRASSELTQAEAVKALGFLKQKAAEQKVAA

T2: λ Exo – Redβ complex (Escherichia phage lambda, UniProt P03698)
T2 sequence (P03698 1-261): T1 sequence (P03698 1-261)

T3: Redβ, full-length, untagged (wild type) (bacteriophage λ, UniProt P03698 1-261)
T3 sequence: T1 sequence (P03698 1-261)

T4: complex of λ Exo and full-length untagged Redβ (bacteriophage λ, UniProt P03697;P03698)
T4 sequence 1: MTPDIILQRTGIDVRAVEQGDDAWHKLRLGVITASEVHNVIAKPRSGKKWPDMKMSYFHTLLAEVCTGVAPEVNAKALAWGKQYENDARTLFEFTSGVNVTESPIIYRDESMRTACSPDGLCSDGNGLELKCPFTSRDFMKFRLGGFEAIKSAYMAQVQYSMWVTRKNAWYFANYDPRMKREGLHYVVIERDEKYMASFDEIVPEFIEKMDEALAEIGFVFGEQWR
T4 sequence 2: T1 sequence (P03698 1-261)

T5: 6His-tagged Escherichia coli exonuclease I (Escherichia coli, UniProt P04995 1-475)
T5 sequence: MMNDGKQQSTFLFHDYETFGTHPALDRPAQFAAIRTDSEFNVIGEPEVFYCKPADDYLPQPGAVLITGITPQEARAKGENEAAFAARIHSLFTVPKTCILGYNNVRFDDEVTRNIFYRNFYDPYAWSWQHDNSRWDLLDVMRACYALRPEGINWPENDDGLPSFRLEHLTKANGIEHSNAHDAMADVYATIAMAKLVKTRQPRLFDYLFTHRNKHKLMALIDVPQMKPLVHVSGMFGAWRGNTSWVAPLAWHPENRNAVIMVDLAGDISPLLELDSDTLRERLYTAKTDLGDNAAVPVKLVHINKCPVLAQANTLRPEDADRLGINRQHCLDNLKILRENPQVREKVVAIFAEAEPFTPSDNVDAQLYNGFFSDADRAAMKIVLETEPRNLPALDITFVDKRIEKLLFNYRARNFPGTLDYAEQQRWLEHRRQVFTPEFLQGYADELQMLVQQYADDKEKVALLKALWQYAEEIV

B1: Redβ^1–250: variant of Redβ lacking the C-terminal 11 residues (protein)
chain: MSTALATLAGKLAERVGMDSVDPQELITTLRQTAFKGDASDAQFIALLIVANQYGLNPWTKEIYAFPDKQNGIVPVVGVDGWSRIINENQQFDGMDFEQDNESCTCRIYRKDRNHPICVTEWMDECRREPFKTREGREITGPWQSHPKRMLRHKAMIQCARLAFGFAGIYDKDEAERIVENTAYTAERQPERDITPVNDETMQEINTLLIALDKTWDDDLLPLCSQIFRRDIRASSELTQAEAVKALGFL
B2: Q252A Redβ: Redβ variant (protein)
chain: T1 sequence (P03698 1-261) with Q252A
B3: E256A Redβ: Redβ variant (protein)
chain: T1 sequence (P03698 1-261) with E256A
B4: Q240A (protein, UniProt P03698 1-261, looked up, variant Q240A)
Recombination protein bet: T1 sequence (P03698 1-261) with Q240A
B5: Redβ C-terminal domain (residues 183-261) (domain or fragment)
chain: AYTAERQPERDITPVNDETMQEINTLLIALDKTWDDDLLPLCSQIFRRDIRASSELTQAEAVKALGFLKQKAAEQKVAA
B6: λ Exonuclease, full-length, untagged (enzyme)
chain: T4 sequence 1
B7: YbcN: Orf homolog from E. coli cryptic prophage DLP12 (protein, UniProt Q47269 1-151, looked up)
Uncharacterized protein YbcN: MNLSQDGIKLHRGNFTAIGRQIQPYLEEGKCFRMVLKPWREKRSLSQNALSHMWYSEISEYLISRGKTFATPAWVKDALKHTYLGYETKDLVDVVTGDITTIQSLRHTSDLDTGEMYVFLCKVEAWAMNIGCHLTIPQSCEFQLLRDKQEA

Experiments:
Redβ = target: T1, Redβ; assay: Fluorescence anisotropy binding of SSB-Ct peptide to Redβ; design: species or system Bacteriophage λ; settings: 20 nM FAM-WMDFDDDIPA, full-length Redβ, pH 7.5, 25°C
λ Exo – Redβ complex = target: T2, λ Exo – Redβ complex; assay: Fluorescence anisotropy binding of SSB-Ct peptide to λ Exo–Redβ complex; design: species or system Bacteriophage λ
λ Exo = settings: cited from earlier work
[1] = cited from earlier work
[2] = cited from earlier work; for dsDNA relative to ssDNA recombination: individual CTD mutations
[3] = target: T3, Redβ, full-length, untagged (wild type); assay: fluorescence polarisation
[4] = target: T4, complex of λ Exo and full-length …; assay: fluorescence polarisation
[5] = target: T5, 6His-tagged Escherichia coli …; assay: fluorescence polarisation
GB2005 E. coli cells [6] = assay: ssDNA recombination assay; assay type: cell-based; settings: % of WT colonies per 10^8 viable cells
GB2005 E. coli cells [7] = assay: dsDNA recombination assay; assay type: cell-based; settings: % of WT colonies per 10^8 viable cells
[8] = target: B6; assay: crystal structure
ssDNA or dsDNA = settings: cited from earlier work
crystal structure = target: the molecule itself; assay: crystal structure
SSB = settings: cited from earlier work

Molecule: FAM-WMDFDDDIPA [SSB-Ct peptide with the F177A mutation]
- binding of F177A SSB-Ct peptide to Redβ (Redβ): completely failed to interact; also recorded: fails to bind

Molecule: CC[C@H](C)[C@H](NC(=O)[C@H](CC(=O)O)NC(=O)[C@H](CC(=O)O)NC(=O)[C@H](CC(=O)O)NC(=O)[C@H](Cc1ccccc1)NC(=O)[C@H](CC(=O)O)NC(=O)[C@H](CCSC)NC(=O)[C@H](Cc1c[nH]c2ccccc12)NC(=O)c1ccc2c(c1)C(=O)OC21c2ccc(O)cc2Oc2cc(O)ccc21)C(=O)N1CCC[C@H]1C(=O)N[C@@H](Cc1ccccc1)C(=O)O [SSB-Ct, FAM-WMDFDDDIPF] (5FAM-WMDFDDDIPF-OH)
- Kd (λ Exo – Redβ complex): 12.8 ± 3.5 µM

Molecule: B1
- interaction with λ Exo (λ Exo; Ni-spin pull down): completely disrupts the interaction with λ Exo
- ssDNA recombination [1]: completely disrupts
- dsDNA recombination [2]: completely disrupts

Molecule: {FAM}-WMDFDDDIPF [SSB C-terminal peptide, fluorescein-labeled (FAM-WMDFDDDIPF)]
- Kd [3]: 10.6 µM
- Kd [4]: 12.8 µM and 12 µM
- Kd [5]: 0.098 µM

Molecule: B2
- SS (%): ssDNA recombination compared to WT (GB2005 E. coli cells [6]): 101%
- SS (%): ssDNA recombination compared to WT (GB2005 E. coli cells [6]; listed as Q252A): 13 to 101%
- DS (%): dsDNA recombination compared to WT (GB2005 E. coli cells [7]): 85%
- DS (%): dsDNA recombination compared to WT (GB2005 E. coli cells [7]; listed as Q252A): 55–106%
- dsDNA relative to ssDNA recombination [2]: decreased dsDNA more than ssDNA recombination

Molecule: B3
- SS (%): ssDNA recombination compared to WT (GB2005 E. coli cells [6]): 55%
- SS (%): ssDNA recombination compared to WT (GB2005 E. coli cells [6]; listed as E256A): 13 to 101%
- DS (%): dsDNA recombination compared to WT (GB2005 E. coli cells [7]): 69%
- DS (%): dsDNA recombination compared to WT (GB2005 E. coli cells [7]; listed as E256A): 55–106%
- dsDNA relative to ssDNA recombination [2]: decreased dsDNA more than ssDNA recombination

Molecule: B4
- interaction with λ Exo (λ Exo): weakened (but did not abolish) the interaction with λ Exo
- dsDNA relative to ssDNA recombination [2]: disrupted dsDNA and ssDNA equally

Molecule: B5
- interaction with λ Exo (λ Exo; Ni-spin pull down): clear interaction
- binding result [8]: binds
- interaction with ssDNA or dsDNA (ssDNA or dsDNA): no interaction with ssDNA or dsDNA

Molecule: B6
- stoichiometry N (crystal structure): 3

Molecule: B7
- requirement of SSB C-tail for interaction with SSB (SSB): does require the C-tail for its interaction with SSB
